The source of these data is patent US20060211624A1, “Methods and compositions for the treatment of parkinson's disease and other alpha-synucleinopathies” (Goverment of the US, as Represented by, priority 2003, published 2006).

In this data set the target is purified recombinant human α-synuclein protein, P37840.

B1: purified guinea pig liver tTGase (protein)
chain: AEDLILERCDLQLEVNGRDHRTADLCRERLVLRRGQPFWLTLHFEGRGYEAGVDTLTFNAVTGPDPSEEAGTMARFSLSSAVEGGTWSASAVDQQDSTVSLLLSTPADAPIGLYRLSLEASTGYQGSSFVLGHFILLYNPRCPADAVYMDSDQERQEYVLTQQGFIYQGSAKFINGIPWNFGQFEDGILDICLMLLDTNPKFLKNAGQDCSRRSRPVYVGRVVSAMVNCNDDQGVLQGRWDNNYSDGVSPMSWIGSVDILRRWKDYGCQRVKYGQCWVFAAVACTVLRCLGIPTRVVTNFNSAHDQNSNLLIEYFRNESGEIEGNKSEMIWNFHCWVESWMTRPDLEPGYEGWQALDPTPQEKSEGTYCCGPVPVRAIKEGHLNVKYDAPFVFAEVNADVVNWIRQKDGSLRKSINHLVVGLKISTKSVGRDEREDITHTYKYPEGSEEEREAFVRANHLNKLATKEEAQEETGVAMRIRVGQNMTMGSDFDIFAYITNGTAESHECQLLLCARIVSYNGVLGPVCSTNDLLNLTLDPFSENSIPLHILYEKYGDYLTESNLIKVRGLLIEPAANSYVLAERDIYLENPEIKIRVLGEPKQNRKLIAEVSLKNPLPVPLLGCIFTVEGAGLTKDQKSVEVPDPVEAGEQAKVRVDLLPTEVGLHKLVVNFECDKLKAVKGYRNVIIGPA
With B1, the “formation of high molecular weight aggregates of α-synuclein (in vitro cross-linking reaction, SDS/PAGE and Western blot)” value is given as “In the presence of DTT, the reduced form of tTGase induced the formation of high molecular weight aggregates of α-synuclein”.
